Data reported in US20200231694A1, “PHARMACEUTICAL COMBINATIONS COMPRISING AN ANTI-BST-1 ANTIBODY AND A CYTIDINE ANALOGUE” (BERLIN-CHEMIE AG, priority 2017, published 2020).

T1: ADP-ribosyl cyclase 2 (CD157; BST1) (human, UniProt Q10588 33-293)
T1 construct: Endogenous lipid-anchored BST1 on human cell lines (A549, H226, U937) and on AML patient blasts; also called Bone marrow stromal antigen 1; cell-surface human BST1
T1 sequence: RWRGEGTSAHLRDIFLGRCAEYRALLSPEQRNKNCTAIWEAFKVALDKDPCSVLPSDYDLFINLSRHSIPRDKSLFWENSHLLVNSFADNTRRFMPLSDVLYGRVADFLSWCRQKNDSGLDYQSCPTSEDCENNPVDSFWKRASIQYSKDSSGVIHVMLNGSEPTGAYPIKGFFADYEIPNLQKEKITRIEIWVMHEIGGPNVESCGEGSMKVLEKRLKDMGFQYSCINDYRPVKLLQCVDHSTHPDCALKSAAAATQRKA

T2: cell surface BST1 protein (Homo sapiens, UniProt Q10588)
T2 construct: the antibodies were incubated with the BST1-expressing cells, A549 and H226, from human lung adenocarcinoma and human lung squamous carcinoma; endogenous in cells; host or cells: A549 (human lung adenocarcinoma) and H226 (human lung squamous carcinoma)
T2 sequence (Q10588 33-293): T1 sequence

B1: BST1_A1 (Fab, V domains shown)
VH: QVKLQQSGAELVRPGSSVKISCKASGYAFSNSWINWVKQRPGQGLEWIGQIYPGDYDTNYNGKFKGKATLTADYSSSTAYMQLNSLTSEDSAVYFCARGGSIYYGNLGFFDVWGAGTTVTVSS
VL: EMVLTQSPAIMSTSLGERVTMTCTASSRVSSSYLHWYQQKPGSSPKLWIYSTSNLASGVPARFSGSGSGTSYSLTISSMEAEDAATYYCHQYHRSPYTFGGGTKLEIKR
notes: also called anti-BST1 monoclonal antibody BST1_A1
B2: BST1_A2 (murine, as selected in Example 2) (Fab, V domains shown)
VH: QAYLQQSGPELVKAGASVKMSCKASGYSFIEYTINWVKQSHGKSLEWIGNIDPYYGTTYYNQMFTGKATLTVDQSSNTAYMQLKSLTSEDSAVYFCARGSAWFPYWGQGTLVTVSA
VL: DIVMSQSPAIMSASPGEKVTMTCSASSSVTYMYWYQQKPGSSPRLLIYDTSNLASGVPVRFSGSGSGTSYSLTISRMEAEDTATYYCQQWSNYPLTFGAGTKLELKR
notes: also called anti-BST1 monoclonal antibody BST1_A2
B3: BST1_A3 (Fab, V domains shown)
VH: QVQLQQSRAELVMPGASVKMSCKTSGYTFSDYWVHWVRQRPGQGLEWIGAIDGSDTFNDYSQKFKGRATLTVDESSSTVYMQLSSLTSEDSAVYYCARGGLLQYWGQGTTLTVSS
VL: DIQLTQSPASLSASVGETVTITCRASENIYSYLAWYQQKQGKSPQLLVYNTKTLGEGVPSRFSGSGSGTQFSLKINSLQPEDFGSYYCQHHYGTPFTFGSGTKLEIKR
B4: BST1_A1: anti-BST1 monoclonal antibody, VH SEQ ID NO: 1, VK SEQ ID NO: 3, murine VH 1-80 / VK 4-74 (antibody, listed as Mus musculus)
heavy: MKQSTIALALLPLLFTPVAKAQVKLQQSGAELVRPGSSVKISCKASGYAFSNSWINWVKQRPGQGLEWIGQIYPGDYDTNYNGKFKGKATLTADYSSSTAYMQLNSLTSEDSAVYFCARGGSIYYGNLGFFDVWGAGTTVTVSSAKTTPPSVYPLAPGSAAQTNSMVTLGCLVKGYFPEPVTVTWNSGSLSSGVHTFPAVLQSDLYTLSSSVTVPSSTWPSETVTCNVAHPASSTKVDKKIVPRDCHHHHHHH
light: MKYLLPTAAAGLLLLAAQPAMAEMVLTQSPAIMSTSLGERVTMTCTASSRVSSSYLHWYQQKPGSSPKLWIYSTSNLASGVPARFSGSGSGTSYSLTISSMEAEDAATYYCHQYHRSPYTFGGGTKLEIKRADAAPTVSIFPPSSEQLTSGGASVVCFLNNFYPKDINVKWKIDGSERQNGVLNSWTDQDSKDSTYSMSSTLTLTKDEYERHNSYTCEATHKTSTSPIVKSFNRNES
B5: BST_A3: anti-BST1 monoclonal antibody, VH SEQ ID NO: 52, VK SEQ ID NO: 53 (antibody, listed as Mus musculus)
heavy: MKQSTIALALLPLLFTPVAKAQVQLQQSRAELVMPGASVKMSCKTSGYTFSDYWVHWVRQRPGQGLEWIGAIDGSDTFNDYSQKFKGRATLTVDESSSTVYMQLSSLTSEDSAVYYCARGGLLQYWGQGTTLTVSSAKTTPPSVYPLAPGSAAQTNSMVTLGCLVKGYFPEPVTVTWNSGSLSSGVHTFPAVLQSDLYTLSSSVTVPSSTWPSETVTCNVAHPASSTKVDKKIVPRDCHHHHHHH
light: MKYLLPTAAAGLLLLAAQPAMADIQLTQSPASLSASVGETVTITCRASENIYSYLAWYQQKQGKSPQLLVYNTKTLGEGVPSRFSGSGSGTQFSLKINSLQPEDFGSYYCQHHYGTPFTFGSGTKLEIKRADAAPTVSIFPPSSEQLTSGGASVVCFLNNFYPKDINVKWKIDGSERQNGVLNSWTDQDSKDSTYSMSSTLTLTKDEYERHNSYTCEATHKTSTSPIVKSFNRNES

Key:
[1] = target: T1, ADP-ribosyl cyclase 2 (CD157; BST1); assay: flow cytometry on BST1-expressing H226 and A549 cells, PE-labelled secondary antibody, geometric mean fluorescence; single antibody dilution, concentration not given
Experimental: (§1) The specificity of antibodies against the BST1 selected in Example 2 was tested by flow cytometry. To test the ability of the antibodies to bind to the cell surface BST1 protein, the antibodies were incubated with the BST1-expressing cells, A549 and H226, from human lung adenocarcinoma and human lung squamous carcinoma, respectively. Cells were washed in FACS buffer (DPBS, 2% FBS), centrifuged and resuspended in 100 μl of the diluted primary BST1 antibody (also diluted in FACS buffer). The antibody-A549 complex was incubated on ice for 60 min and then washed twice with FACS buffer as described above. The cell-antibody pellet was resuspended in 100 μl of the diluted secondary antibody (also diluted in FACS buffer) and incubated on ice for 60 min on ice. The pellet was washed as before and resuspended in 200 μl FACS buffer. The samples were loaded onto the BD FACScanto II flow sytometer and the data analyzed using the BD FACSdiva software.

H226 cells = assay: MabZAP internalization assay, H226 cells; type: cell-based; conditions: compared to anti-human IgG isotype control
Experimental: (§2) Internalization of BST1_A1 and BST1_A2 by H226 and A549 were investigated using a MabZap assay. […] (Advanced Targeting System, San Diego, Calif., IT-22-100). First, BST1 Fab was bound to the surface of the cells. Then, the MabZAP antibodies were bound to the primary antibodies. Next, the MabZAP complex was internalized by the cells.
(§3) The MabZAP assay was conducted as follows. Each of the cells was seeded at a density of 5×10^3 cells per well. The anti-BST1 monoclonal antibody or an isotype control human IgG was serially diluted then added to the cells and incubated for 15 min at 25° C. The MabZAP was then added and incubated for 72 hr at 37° C. Cell viability in the plates was detected by CellTiter-Glo® Luminescent Cell Viability Assay kit (Promega, G7571) and the plates were read and analysed using Promega Glomax. Cell death was proportional to the concentration of anti-BST1 monoclonal antibodies.

A549 cells = assay: MabZAP internalization assay, A549 cells; type: cell-based; conditions: compared to anti-human IgG isotype control
Experimental: as §2, §3

[2] = target: T2, cell surface BST1 protein; assay: Flow cytometry binding of anti-BST1 antibodies to BST1-expressing cells; conditions: A549 and H226 cells
Experimental: as §1

| Molecule | binding result [1] | internalization (MabZAP) (H226 cells) | internalization (MabZAP) (A549 cells) | binding to cell-surface human BST1 [2] |
| --- | --- | --- | --- | --- |
| B1 | binds | – | – | – |
| B2 | binds | – | – | – |
| B3 | binds | – | – | – |
| B4 | – | efficiently internalized | efficiently internalized | bound effectively |
| B5 | – | – | – | bound effectively |
